The RNAGym collection of RNA variant scans (doi:10.1073/pnas.2313332121)
This sample holds only a part of the variants without activity.

B1: TPR 5TU (parent)
chain: GGAUCUUCUCGAUCUAACAAAAAAGACAAAUCUGCCACAAAGCUUGAGAGCAUCUUCGGAUGCAGAGGCGGCAGCCUUCGGUGGCGCGAUAGCGCCAACGUUCUCAACUAUGACACGCAAAACGCGUGCUCCGUUGAAUGGAGUUUAUCAUG

Variants of: B1
Assay: polymerase ribozyme fitness, log enrichment relative to wild type (log ratio); higher = more active; in vitro selection for triplet polymerase activity
Procedure, shortened: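 Fitness measures genotype enrichment against wild-type enrichment on a logarithmic scale, with inverse-variance-weighted averaging of replicates. The logarithm is base 2, and genotypes were kept only with ≥10 input reads and ≥1 read per output in Illumina sequencing. The sequenced libraries came from one triplicate in vitro selection round, including frozen incubation at −7 °C, of PCR-built, transcribed mutant libraries of each subunit of a heterodimeric triplet polymerase ribozyme.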

Variant | polymerase ribozyme fitness (log ratio)
C72G C99G | ≤ -4.2
A73U C85U C103G C105G C116U A142G | ≤ -4.2
A73U G84U G152A | -3.83
G71C U111G | ≤ -4.2
G74A C114U | -3.85
G68C A89C C96A A113G G124C U134C | ≤ -4.2
G70C G80A | -3.94
G67U G81A C93G C105U | ≤ -4.2
G71U A73U A97G U145G | ≤ -4.2
A73G U101C | 0.659
C72U C93U A97U A115U | -3.88
C69G C87A | ≤ -4.2
G68C C93U G140A A147G | ≤ -4.2
C72U A89U A122U U146A | -0.532
C69G C93U | -3.1
G74A G92C | -2.84
C75G U78C C99U C132G | ≤ -4.2
G65A C96U G112C A115G U144A | ≤ -4.2
G65A G136C A147C | -4.13
G71C U77A U90C C103A U104G C131G | ≤ -4.2
A73C | -2.13
A73U | -0.424
A73G | 0.127
C69G G84U A89U A122C U146C | -2.82

Variant | polymerase ribozyme fitness (log ratio)
A73U A97G U130G | ≤ -4.2
C75G C95U | -2.19
C75U C99U | -2.07
A73G C85G | -1.1
G68C C96G U139A | ≤ -4.2
A66G G92C C105U | -4.03
C63U C99G U151A | ≤ -4.2
A73G C93G U130C | -3.08
A73C C95U | -2.49
G71C U109A U111G | ≤ -4.2
A73U G84A C108G G141A U145C | ≤ -4.2
G68A C96U | -3.68
C69A C76G C79A U102A G141C | ≤ -4.2
C69G C96U C103A | -3.44
C63A C79U G94C A119G | ≤ -4.2
A73U C85U | -0.649
C75U C85U A119G G143A A147C | -3.76
A73U C75G U78A A89G C93G C95A U146G | ≤ -4.2
G71A C96G | -3.31
C72G A147U | -3.16
G71C A73C C108U U146C C149G | ≤ -4.2
G71A U144A A147C | ≤ -4.2
A64G A91C A115G U145C | -3.96
A66G U78G U90C U135G | ≤ -4.2

Variant | polymerase ribozyme fitness (log ratio)
A64G G84U U151A | ≤ -4.2
G67A G86A | -3.58
C75A C87A G88A | ≤ -4.2
C69U G81U | -2.07
G70A U78C G88U U104G A113G G128U U135A | ≤ -4.2
A66C C76U | -3.47
G74C G81C | -3.94
C69A G70C A106G C131U A137C | ≤ -4.2
C75G G92U | -2.52
G67A C87A A98U | ≤ -4.2
A66C G92A | ≤ -4.2
G70A A73G C79U G88C G133C A137C | ≤ -4.2
G71C | -2.66
G71A | -2.47
G71U | -1.93
A73U C75A G92A | ≤ -4.2
A73G A122U G126U | -0.405
C69A C93G C103A U130A | ≤ -4.2
A66G G83C U111G | ≤ -4.2
G67A C76A | -4.16
A73G G92C | -0.498
G71U G84A A106U C118A G152A | ≤ -4.2
C69G A89U | -1.45
G67U C85A C93U | ≤ -4.2

Variant | polymerase ribozyme fitness (log ratio)
C75U C85U A106C A122C U135A U145A | -3.69
C75A G86A A97G G136U | ≤ -4.2
C75U G81A C85A C95G A98U | -3.71
C75G A113U | ≤ -4.2
C63U A89G C93A | ≤ -4.2
G68A G71C C95A C116U | ≤ -4.2
G65C C87G U102A | ≤ -4.2
C75U G84U C99U A115C | -3.35
A64C G71A U144G U148G | ≤ -4.2
C75U C95U C96U | -0.218
G71C G80C C95G U104G C116U | ≤ -4.2
A66C C103G C108A G117A | ≤ -4.2
C72G C105U | -3.5
C63U A64G G83C | ≤ -4.2
G68U A150G | ≤ -4.2
C72U C76A | -1.91
C72U C85U C95U | -0.261
G67C A91C | ≤ -4.2
C69A G92U | -1.15
G71C C129A | ≤ -4.2
G67A A73C C87G | ≤ -4.2
G65C G86C | ≤ -4.2
A73G G92A C99G G141U | ≤ -4.2
C72U A98G U134C | -0.362

Variant | polymerase ribozyme fitness (log ratio)
C72A C125U | ≤ -4.2
G68U C85G U139A U145G U146G | ≤ -4.2
C69A C85A G124U | -2.55
C63U C79G A91G A107G | ≤ -4.2
G71U C85G U134G U139G | ≤ -4.2
C63U C85U | -0.275
A73G U77G C103G G136U | ≤ -4.2
A66C C85A | ≤ -4.2
A73C C93G | ≤ -4.2
A73G C85A G124A | -1.16
C63G U90G G94A | -3.97
C75U A98G G112C A122U | ≤ -4.2
A73G U78A C116A A138G | ≤ -4.2
C63U A73G | -0.225
C63G A98U C99U | 0.639
G71C C87A G128U C131U G152U | ≤ -4.2
G70C C87A G140A | ≤ -4.2
C69U A73U | -2.64
C69U C76G U130A | ≤ -4.2
A66G C69U | ≤ -4.2
G65C G81U G94C C105G A115G C129U A138C | ≤ -4.2
A73G G126A | -0.377
A73G G86A A98U G117U C149U | -4.18
A73U G83U A122C U127A | ≤ -4.2

Variant | polymerase ribozyme fitness (log ratio)
C72U U104G A106G U144A | -4.01
A73C G92A U101G | ≤ -4.2
G67U C118U | -2.87
C69G G83C | -4.05
G67U G70C G86A C132G | ≤ -4.2
C69G C76A G152U | -4.17
C72U U77C C96A A110G | ≤ -4.2
G65C C85U | -4.04
G74A G84A A107G | ≤ -4.2
G68A G81A C95A A150C G152A | ≤ -4.2
G68C G83U G92A U102A A137G A142G | ≤ -4.2
G74C C99U A142U U146A | ≤ -4.2
C69A U82G | -1.91
G65U U82A C93U C95G | ≤ -4.2
C75U A91G A147C | -3.68
G65A C76A A122U | -4.06
C63U G68A G83C A115C U144C C149A | ≤ -4.2
C75U G92C | -1.11
G65A A113G | -3.91
G65C G74C G88A C93G U146A | ≤ -4.2
G68C G86U A89U C96A A110U C114U | ≤ -4.2
G68A G83U C118G G136U | ≤ -4.2
C69U C85U U127G | -3.4
A73U C95U G140A A142C | ≤ -4.2

Variant | polymerase ribozyme fitness (log ratio)
G68U U134G | ≤ -4.2
C69U G136U U146C | -2.94
G68A C87A A107G G117U C132G | ≤ -4.2
A66G C96U A138U U151A | ≤ -4.2
G65U U78A | -1.52
G70A C75U C87G C99G C103A G140U U144G U146G | ≤ -4.2
A73G C76U A142U | -2.11
A66C C76U A91U A97U C114U A142G | ≤ -4.2
G67U C75A G92A G124U | ≤ -4.2
C75G A106C C108A | ≤ -4.2
A73U G84C C116A | -2.63
G68C G81U C96U U109C | ≤ -4.2
A73G A98G U146G | -1.02
C63U G80A A97G A110G | -4.19
A73G G141A | -0.252
A64G C99A | -3.82
G65A G84U | -2.89
G71A A107U G133C | ≤ -4.2
C69G G84A U101C | -2.05
A73U C76G G94A | ≤ -4.2
A66G C87U | -3.68
C69G G94A | -1.15
G70A C99U U134G G140C G143C | ≤ -4.2
